Data taken from the Immune Epitope Database (IEDB).

Legend:
HLA-A*02:01 [1] = test: IEDB peptide-MHC binding, purified MHC/competitive/radioactivity; filed as Kd, often an IC50 or EC50 that approximates it; ≥ and ≤ were set here for values at or beyond the usual limits of such assays
HLA-A*02:17 = test: as above
HLA-A*11:01 [2] = test: IEDB peptide-MHC binding, purified MHC/competitive/fluorescence; filed as Kd, often an IC50 or EC50 that approximates it; ≥ and ≤ were set here for values at or beyond the usual limits of such assays; conditions: source organism: Homo sapiens
HLA-B*15:03 = test: IEDB peptide-MHC binding, purified MHC/competitive/radioactivity; filed as Kd, often an IC50 or EC50 that approximates it; ≥ and ≤ were set here for values at or beyond the usual limits of such assays; conditions: source organism: Vaccinia virus WR
HLA-B*08:01 = test: as above; conditions: source organism: Vaccinia virus WR
HLA-A*30:01 = test: as above; conditions: source organism: Vaccinia virus WR
HLA-B*15:01 [3] = test: as above; conditions: source organism: Vaccinia virus WR
HLA-A*32:01 = test: as above; conditions: source organism: Vaccinia virus WR
HLA-A*11:01 [4] = test: IEDB peptide-MHC binding, purified MHC/competitive/fluorescence; ≥ and ≤ were set here for values at or beyond the usual limits of such assays
HLA-A*03:01 [5] = test: as above
HLA-A*02:01 [6] = test: as above; conditions: source organism: Zaire ebolavirus
HLA-A*24:02 [7] = test: IEDB peptide-MHC binding, purified MHC/competitive/fluorescence; filed as Kd, often an IC50 or EC50 that approximates it; ≥ and ≤ were set here for values at or beyond the usual limits of such assays
HLA-B*39:01 = test: as above
HLA-B*35:01 = test: as above
HLA-B*07:02 [8] = test: as above
HLA-B*51:01 = test: as above; conditions: source organism: Yersinia pestis Nepal516
HLA-A*31:01 [9] = test: as above
HLA-A*02:03 [10] = test: IEDB peptide-MHC binding, purified MHC/competitive/radioactivity; filed as Kd, often an IC50 or EC50 that approximates it; ≥ and ≤ were set here for values at or beyond the usual limits of such assays
HLA-A*11:01 [11] = test: IEDB peptide-MHC binding, purified MHC/direct/fluorescence; filed as Kd, often an IC50 or EC50 that approximates it; ≥ and ≤ were set here for values at or beyond the usual limits of such assays
HLA-A*03:01 [12] = test: as above; conditions: source organism: Bacillus anthracis
HLA-B*15:01 [13] = test: IEDB peptide-MHC binding, purified MHC/competitive/fluorescence; ≥ and ≤ were set here for values at or beyond the usual limits of such assays; conditions: source organism: Zaire ebolavirus
HLA-A*24:02 [14] = test: as above; conditions: source organism: Zaire ebolavirus
HLA-B*83:01 = test: IEDB peptide-MHC binding, purified MHC/competitive/fluorescence; filed as Kd, often an IC50 or EC50 that approximates it; ≥ and ≤ were set here for values at or beyond the usual limits of such assays
HLA-B*15:42 = test: as above
HLA-B*45:06 = test: as above
HLA-B*44:02 = test: IEDB peptide-MHC binding, purified MHC/direct/fluorescence; filed as Kd, often an IC50 or EC50 that approximates it; ≥ and ≤ were set here for values at or beyond the usual limits of such assays; conditions: source organism: Dengue virus 1 Singapore/S275/1990
HLA-B*44:03 = test: IEDB peptide-MHC binding, purified MHC/competitive/radioactivity; filed as Kd, often an IC50 or EC50 that approximates it; ≥ and ≤ were set here for values at or beyond the usual limits of such assays; conditions: source organism: Dengue virus 1 Brazil/97-11/1997
HLA-A*02:03 [15] = test: IEDB peptide-MHC binding, purified MHC/competitive/fluorescence; filed as Kd, often an IC50 or EC50 that approximates it; ≥ and ≤ were set here for values at or beyond the usual limits of such assays; conditions: source organism: Giardia intestinalis
HLA-B*18:01 = test: IEDB peptide-MHC binding, purified MHC/direct/fluorescence; filed as Kd, often an IC50 or EC50 that approximates it; ≥ and ≤ were set here for values at or beyond the usual limits of such assays; conditions: source organism: Giardia intestinalis
HLA-B*40:01 = test: as above; conditions: source organism: Giardia intestinalis
HLA-A*01:01 = test: as above; conditions: source organism: Giardia intestinalis
HLA-A*02:01 [16] = test: as above; conditions: source organism: Giardia intestinalis
HLA-A*26:01 = test: as above; conditions: source organism: Giardia lamblia ATCC 50803
HLA-A*31:01 [17] = test: as above; conditions: source organism: Giardia intestinalis
HLA-B*07:02 [18] = test: as above; conditions: source organism: Giardia intestinalis
HLA-B*58:01 = test: as above; conditions: source organism: Giardia intestinalis
HLA-B*57:01 = test: as above; conditions: source organism: Giardia intestinalis
HLA-A*69:01 = test: as above; conditions: source organism: Giardia intestinalis
HLA-B*27:05 = test: as above; conditions: source organism: Giardia intestinalis
HLA-A*68:02 = test: as above; conditions: source organism: Giardia intestinalis
HLA-B*48:01 = test: as above; conditions: source organism: Giardia intestinalis
HLA-B*46:01 = test: as above; conditions: source organism: Yellow fever virus 17D
HLA-B*15:01 [19] = test: as above; conditions: source organism: Yellow fever virus 17D
[20] = source organism: Dengue virus 3 China/80-2/1980
[21] = source organism: Vaccinia virus
[22] = source organism: Zaire ebolavirus
[23] = source organism: Yersinia pestis Nepal516
[24] = source organism: Salmonella enterica subsp. enterica serovar Typhimurium str. LT2
[25] = source organism: Sudan ebolavirus
[26] = source organism: Bacillus thuringiensis str. Al Hakam
[27] = source organism: Bacillus anthracis
[28] = source organism: Dengue virus 1 Singapore/S275/1990
[29] = source organism: Mycobacterium tuberculosis C
[30] = source organism: Influenza A virus H3N2
[31] = source organism: dengue virus type 1
[32] = source organism: Yellow fever virus
[33] = source organism: Salmonella enterica subsp. enterica serovar Typhi

Sequence YILWENNIKL has a Kd (HLA-A*02:01 [1]; [20]) of 5.85 nM and a Kd (HLA-A*02:17; [20]) of 10.1 nM.

In the case of YLDDRNTFR, the Kd (HLA-A*11:01 [2]) is reported as no less than 20000 nM.

RNKLSYRNK gave a Kd (HLA-B*15:03) of 16400 nM, a Kd (HLA-B*08:01) of no less than 61500 nM and a Kd (HLA-A*30:01) of 63.9 nM. It also gave a Kd (HLA-B*15:01 [3]) of no less than 29500 nM, a Kd (HLA-A*32:01) of no less than 44000 nM and an IC50 (HLA-A*11:01 [4]; [21]) of no less than 90400 nM. The IC50 (HLA-A*03:01 [5]; [21]) was 45100 nM.

With KLSSTNQLR the IC50 (HLA-A*11:01 [4]; [22]) was 2460 nM, the IC50 (HLA-A*02:01 [6]) was no less than 196000 nM and the IC50 (HLA-A*03:01 [5]; [22]) was 6870 nM.

IYLNEVNTF showed a Kd (HLA-A*24:02 [7]; source organism: Vibrio splendidus 12B01) of no more than 0.1 nM.

With FPVAMLSCL the Kd (HLA-B*39:01; [23]) was 18.5 nM, the Kd (HLA-B*35:01; [23]) was no more than 0.1 nM and the Kd (HLA-B*07:02 [8]; [23]) was 15.7 nM. The Kd (HLA-B*51:01) was 186 nM.

Work on ATTTSPQNH yielded an IC50 (HLA-A*11:01 [4]; [22]) of 1910 nM and an IC50 (HLA-A*03:01 [5]; [22]) of 37700 nM.

MVGIVHFNK was tested, and the Kd (HLA-A*31:01 [9]; [24]) was 90 nM and the Kd (HLA-A*24:02 [7]; [24]) was 42.9 nM.

ALFSGVSWI gave a Kd (HLA-A*02:01 [1]; [20]) of 0.51 nM, a Kd (HLA-A*02:17; [20]) of 483 nM and a Kd (HLA-A*02:03 [10]; source organism: Dengue virus 3 Singapore/8120/1995) of 1.58 nM.

With AQHSTTLFK the IC50 (HLA-A*11:01 [4]; [25]) was 994 nM and the IC50 (HLA-A*03:01 [5]; [25]) was 30000 nM.

RTHLGFIFQ gave a Kd (HLA-A*31:01 [9]; [26]) of no less than 20000 nM, a Kd (HLA-A*11:01 [11]; [27]) of no less than 20000 nM and a Kd (HLA-A*03:01 [12]) of no less than 20000 nM.

For KLLTKPWDV, the Kd (HLA-A*02:17; source organism: Dengue virus 4 Philippines/H241/1956) was 379 nM.

SFFYRYGF gave a Kd (HLA-A*24:02 [7]; source organism: Influenza A virus (A/Fort Monmouth/1/1947-mouse adapted(H1N1))) of 35.7 nM.

QLQQYAESR gave an IC50 (HLA-A*11:01 [4]; [22]) of 18700 nM and an IC50 (HLA-A*03:01 [5]; [22]) of no less than 240000 nM.

For GTLTKGVFK, the Kd (HLA-A*31:01 [9]; source organism: Bacillus anthracis str. A0488) was 15.3 nM, the Kd (HLA-A*11:01 [11]; [27]) was 12 nM and the Kd (HLA-A*03:01 [12]) was 54.9 nM.

TLAVFLLLI showed a Kd (HLA-A*02:01 [1]; [28]) of 2590 nM and a Kd (HLA-A*02:17; [28]) of 1840 nM.

ILMNFHQKK showed an IC50 (HLA-A*11:01 [4]; [22]) of 163 nM, an IC50 (HLA-A*02:01 [6]) of 2470 nM and an IC50 (HLA-A*03:01 [5]; [22]) of 808 nM. The IC50 (HLA-B*15:01 [13]) was 69400 nM and the IC50 (HLA-A*24:02 [14]) was 9840 nM.

With SARRRHLVF the Kd (HLA-B*83:01; [29]) was no less than 5000 nM, the Kd (HLA-B*15:42; [29]) was no less than 5000 nM and the Kd (HLA-B*45:06; [29]) was no less than 5000 nM.

Sequence SKSMRDQRK has an IC50 (HLA-A*11:01 [4]; source organism: Variola virus) of 21100 nM and an IC50 (HLA-A*03:01 [5]; source organism: Variola virus) of no less than 246000 nM.

RMKWMMAM was tested, and the Kd (HLA-B*07:02 [8]; [30]) was 3250 nM.

Work on RARIKTRLFTI yielded a Kd (HLA-B*07:02 [8]; source organism: Influenza A virus (A/X-31(H3N2))) of 733 nM.

For SEMGANFRA, the Kd (HLA-B*83:01; [31]) was no less than 5000 nM, the Kd (HLA-B*15:42; [31]) was no less than 5000 nM and the Kd (HLA-B*45:06; [31]) was no less than 5000 nM. For the same sequence, the Kd (HLA-B*44:02) was no less than 37700 nM and the Kd (HLA-B*44:03) was 48.9 nM.

LEKWNLGII gave a Kd (HLA-A*02:03 [15]) of 4370 nM, a Kd (HLA-B*18:01) of 1140 nM and a Kd (HLA-A*11:01 [11]; source organism: Giardia intestinalis) of no less than 20000 nM. It also gave a Kd (HLA-B*40:01) of 599 nM, a Kd (HLA-A*01:01) of no less than 20000 nM and a Kd (HLA-A*02:01 [16]) of no less than 20000 nM. It also gave a Kd (HLA-A*26:01) of no less than 20000 nM, a Kd (HLA-A*31:01 [17]) of no less than 20000 nM and a Kd (HLA-B*07:02 [18]) of no less than 20000 nM. The Kd (HLA-B*58:01) was no less than 20000 nM, the Kd (HLA-B*57:01) was no less than 20000 nM and the Kd (HLA-A*69:01) was no less than 20000 nM. It also gave a Kd (HLA-B*27:05) of no less than 20000 nM, a Kd (HLA-A*68:02) of no less than 20000 nM and a Kd (HLA-B*48:01) of no less than 20000 nM.

FLAHAIGTSI was tested, and the Kd (HLA-A*02:01 [1]; [28]) was 8.19 nM, the Kd (HLA-A*02:17; [28]) was 1.85 nM and the Kd (HLA-A*02:03 [10]; source organism: Dengue virus 1 Brazil/97-11/1997) was 46.7 nM.

Sequence LYNKMEFEPF has a Kd (HLA-A*24:02 [7]; [30]) of 3.3 nM.

Work on AEMGANLCV yielded a Kd (HLA-B*83:01; [32]) of no less than 5000 nM, a Kd (HLA-B*15:42; [32]) of no less than 5000 nM and a Kd (HLA-B*45:06; [32]) of no less than 5000 nM. It also gave a Kd (HLA-B*46:01) of no less than 20000 nM and a Kd (HLA-B*15:01 [19]) of no less than 20000 nM.

YYLLFYPTI showed a Kd (HLA-A*24:02 [7]; [26]) of no more than 0.1 nM.

WPDVFSVSV was tested, and the Kd (HLA-B*39:01; [33]) was 3.8 nM, the Kd (HLA-B*35:01; [33]) was 1.3 nM and the Kd (HLA-B*07:02 [8]; [33]) was 65.7 nM.
